Experimental data as given in patent US11028167 (CENTIVAX, dated 2021).
Substitutions are numbered along the chain they refer to. Read-outs that look alike come from different tables or passages of the source.

Key:
Experiment in all cases: SPR, scFv captured by anti-V5, RBD analyte
[1] = target: T1, SARS-CoV-2 Receptor Binding Domain (RBD) protein (SARS-CoV-2, UniProt P0DTC2 319-541)
[2] = target: SARS-CoV-1 Receptor Binding Domain (RBD) protein (SARS-CoV-1, UniProt P59594 306-527)
[3] = target: MERS Receptor Binding Domain (RBD) protein (Middle East Respiratory Syndrome (MERS) …, UniProt K9N5Q8 367-606)
[4] = target: T1, SARS-CoV-2 Receptor Binding Domain …; remark: listed apart in the source

B1: COVID19_R02_C12 (scFv, V domains shown)
VH: QVQLVQSGAEVKKPGASVKVSCKASGYTFTSYDINWVRQAPGQGLEWMGMVDPNSGNTYYAQKFQGRFTMTRDTSTSTVYMELSSLRSEDTAVYYCTREGIPQLLGTLDYWGQGTLVTVSS
VL: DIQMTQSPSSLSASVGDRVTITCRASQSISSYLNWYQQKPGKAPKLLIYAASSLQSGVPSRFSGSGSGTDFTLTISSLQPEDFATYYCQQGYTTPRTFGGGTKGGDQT
[1]
  Kd: 8.2 nM
  koff: 0.00059 s⁻¹
  kon: 72000 M⁻¹ s⁻¹
[2]
  binding result: no binding (tested: 300 nM)
[3]
  binding result: no binding (tested: 300 nM)

B2: COVID19_R02_B08 (scFv, V domains shown)
VH: QVQLVQSGAEVKKPGASVKVSCKASGYTFTSYYIHWVRQAPGQGLEWMGIINPRGGSTSYAQKFQGRVTMTRDTSTSTVYMELSSLRSEDTAVYYCTREAKPQLLRTLDYWGQGTLVTVSS
VL: DIQMTQSPSSLSASVGDRVTITCRASQGIDTYLNWYQQKPGKAPKLLIYKASSLESGVPSRFSGSGSGTEFTLTINSLQPEDIATYYCQQYDNLPLTFGGGTKVEIKR
[4]
  Kd: 166 nM

B3: COVID19_P06_C09 (scFv, V domains shown)
VH: B1 VH with D33E, M50V, V51I, D52N, N54S, S55G, N57H, Y59N, F68V, L105A
VL: DIQMTQSPSSLSASVGDRVTITCRASQSISGYLNWYQQKPGKAPKLLIYAASSLESGVPSRFSGSGSGTDFTLTISSLQPEDFATYYCQQGYTTPRTFGGGTKVEIKR
[1]
  Kd: 2.47 nM
  koff: 0.00074 s⁻¹
  kon: 300000 M⁻¹ s⁻¹
[2]
  binding result: no binding (tested: 300 nM)
[3]
  binding result: no binding (tested: 300 nM)

B4: COVID19_P06_F03 (scFv, V domains shown)
VH: QVQLVQSGAEVKKPGASVKVSCKASGYTFTSYSMHWVRQAPGQGLEWMGAIYPGNSDTTYAQKFQGRVTMTRDTSTSTVYMELSSLRSEDTAVYYCTLDGIPQLLRTLDYWGQGTLVTVSS
VL: B3 VL with G31S, A50G, A51V, E55H, Q89L, G91Y, Y92V, T93S, T94Y, R96W
[1]
  Kd: 32.6 nM
  koff: 0.00532 s⁻¹
  kon: 163000 M⁻¹ s⁻¹
[2]
  binding result: no binding (tested: 300 nM)
[3]
  binding result: no binding (tested: 300 nM)
